From US20160272706A1 (AstraZeneca / MedImmune, published 2016) come the findings set out here.

B1: 1183H4_VH_VL_nonGL IgG1-YTE (antibody, V domains shown)
VH: QVQLVQSGAEVKKPGASVKVSCKASGYTFTNYGLSWVRQAPGQGLEWMGWINYDGGNTQYGQEFQGRVTMTTDTSTSTAYMELRSLRSDDTAVYYCARDSSSSWARWFFDLWGRGTLVTVSS
VL: SYVLTQPPSVSVAPGKTARIPCGGNIIGSKLVHWYQQKPGQAPVLVIYDDGDRPSGIPERFSGSNSGNTATLTISRVEAGDEADYYCQVWDTGSDPVVFGGGTKLTVL
notes: Non-germlined parent as IgG1 with the YTE mutations (M252Y/S254T/T256E, EU); also called Parent IgG1-YTE; parent clone
B2: BAK1183H4 antibody (antibody, V domains shown)
VH: B1 VH
VL: B1 VL
notes: also called 1183H04; BAK1183H04
B3: 13NG0078 (scFv, V domains shown)
VH: B1 VH with M48V
VL: B1 VL with I26L, G28A, S29A, K30R, V46I, I47M, Y48F, G51Q, A79T, D95L
notes: purified scFv from the mini-recombination library; member of group m20; also called ZZ0SFL-G06; copies: 1 + 1
B4: 13NG0086 (scFv, V domains shown)
VH: B1 VH
VL: B1 VL with I26M, I27V, S29A, K30R, V46I, I47V, G51M, D95R
notes: purified scFv from the mini-recombination library; member of group m20; also called ZZ0SEB-F04; copies: 1 + 1
B5: 13NG0079 (scFv, V domains shown)
VH: B1 VH
VL: B1 VL with I26L, S29A, K30R, V46I, I47V, G51M, D95L
notes: purified scFv from the mini-recombination library; member of group m20; also called ZZ0SEA-B02; copies: 1 + 1
B6: 13NG0088 (scFv, V domains shown)
VH: B1 VH
VL: B1 VL with I26L, S29A, K30R, Y48M, G51I, D95R
notes: purified scFv from the mini-recombination library; member of group m20; also called ZZ0SEC-C01; copies: 1 + 1
B7: 13NG0081 (scFv, V domains shown)
VH: B1 VH with M48V
VL: B1 VL with I26L, S29A, K30R, V46I, I47V, G51M, D95R
notes: purified scFv from the mini-recombination library; member of group m20; the text gives two different numbers for the VH; also called ZZ0SE9-C11; copies: 1 + 1
B8: 13NG0084 (scFv, V domains shown)
VH: B1 VH
VL: B1 VL with I26L, G28A, S29A, K30R, V46I, I47V, Y48F, G51E, D95S
notes: purified scFv from the mini-recombination library; member of group m20; also called ZZ0SED-F07; copies: 1 + 1
B9: 13NG0087 (scFv, V domains shown)
VH: B1 VH
VL: B1 VL with I26M, I27V, G28A, S29A, K30R, V46I, I47M, Y48F, G51Q, D95L
notes: purified scFv from the mini-recombination library; member of group m20; also called ZZ0SEF-E05; copies: 1 + 1
B10: 13NG0080 (scFv, V domains shown)
VH: B1 VH with V2A
VL: B1 VL with I26L, G28A, S29A, K30R, V46I, I47V, Y48F, G51E, A79T, D95S
notes: purified scFv from the mini-recombination library; member of group m20; also called ZZ0SEA-D07; copies: 1 + 1
B11: 13NG0085 (scFv, V domains shown)
VH: B1 VH
VL: B1 VL with I26M, I27V, S29A, K30R, V46I, Y48M, G51I, D95R
notes: purified scFv from the mini-recombination library; member of group m20; also called ZZ0SEF-G10; copies: 1 + 1
B12: 13NG0082 (scFv, V domains shown)
VH: B1 VH
VL: B1 VL with I26M, I27V, S29A, K30R, V46I, I47V, Y48F, G51E, D95R
notes: purified scFv from the mini-recombination library; member of group m20; also called ZZ0SEF-E03; copies: 1 + 1
B13: 13NG0083 (antibody, V domains shown)
VH: B1 VH
VL: B1 VL with I26M, I27V, S29A, K30R, V46I, I47V, Y48F, G51E, D95S
notes: also called unmodified 13NG0083; WT
B14: 13NG0070 (scFv, V domains shown)
VH: B1 VH
VL: B1 VL with I26M, I27V, S29A, K30R, V46I, I47V, Y48F, G51E, D95R
notes: purified scFv from the mini-recombination library; member of group m20; also called ZZ0SED-B06; copies: 1 + 1
B15: 13NG0069 (scFv, V domains shown)
VH: B1 VH
VL: B1 VL with I26M, I27V, S29A, K30R, V46I, Y48M, G51I, D95R
notes: purified scFv from the mini-recombination library; member of group m20; also called ZZ0SEA-A03; copies: 1 + 1
B16: 13NG0076 (scFv, V domains shown)
VH: B1 VH
VL: B1 VL with I26M, I27V, S29A, K30R, Y48M, G51I, D95R
notes: purified scFv from the mini-recombination library; member of group m20; also called ZZ0SEA-F10; copies: 1 + 1
B17: 13NG0068 (scFv, V domains shown)
VH: B1 VH with M48V, S77G
VL: B1 VL with S9L, I26L, S29A, K30R, V46I, Y48M, G51I
notes: purified scFv from the mini-recombination library; member of group m20; also called ZZ0SEB-B02; copies: 1 + 1
B18: 13NG0073 (antibody, V domains shown)
VH: B1 VH
VL: B1 VL with I26L, S29A, K30R, V46I, Y48M, G51I, D95R
notes: IgG in the KinExA assay; also called IL13NG0073
B19: 13NG0077 (scFv, V domains shown)
VH: B1 VH
VL: B1 VL with I26M, I27V, S29A, K30Y, V46I, I47V, G51M, D95S
notes: purified scFv from the mini-recombination library; member of group m20; also called ZZ0SED-A07; copies: 1 + 1
B20: 13NG0071 (scFv, V domains shown)
VH: B1 VH
VL: B1 VL with I26M, I27V, S29A, K30R, V46I, I47V, Y48F, G51E, D95L
notes: purified scFv from the mini-recombination library; member of group m20; also called ZZ0SEE-A09; copies: 1 + 1
B21: 13NG0067 (scFv, V domains shown)
VH: B1 VH with S85G
VL: B1 VL with I26M, I27V, S29A, K30R, V46I, Y48M, G51I, D95S
notes: purified scFv from the mini-recombination library; member of group m20; also called ZZ0SEF-H04; copies: 1 + 1
B22: 13NG0072 (scFv, V domains shown)
VH: B1 VH
VL: B1 VL with I26M, I27V, S29A, K30R, V46I, I47V, G51M, A79T, D95R
notes: purified scFv from the mini-recombination library; member of group m20; also called ZZ0SEA-H11; copies: 1 + 1
B23: 13NG0075 (scFv, V domains shown)
VH: B1 VH
VL: B1 VL with I26M, I27V, S29A, K30R, Y48M, G51I, D95R
notes: purified scFv from the mini-recombination library; member of group m20; also called ZZ0SEE-A06; copies: 1 + 1
B24: 13NG0074 (antibody, V domains shown)
VH: B1 VH
VL: B1 VL with I26L, S29A, K30R, V46I, I47M, Y48F, G51Q, D95L
notes: IgG in the KinExA assay

Numbering of substitutions follows the chain as printed. Numbers in names are those of the source.

The target of the first assay is FLAG-tagged human IL-13 (R130 variant) (human, UniProt P35225 35-146). Put plainly: HTRF receptor-ligand competition; FLAG-tagged human IL-13 (312.5 pM) against DyLight650-labelled human IL-13Rα2 (10 nM); geometric mean. (In general: Time-resolved FRET reads energy transfer from a long-lived donor to a nearby acceptor.)
Broadly, the IC50 is the midpoint of a concentration-inhibition curve. For the molecule B1, the 50% inhibitory concentration (IC50) worked out at 1.34 nM.

The target in the next assay is T1, Human IL-13 (human, UniProt P35225 35-146).
T1 construct: also called human interleukin 13 (Peprotech); the antigen
Put plainly: IC50 of the parent scFv divided by IC50 of the clone, biochemical receptor-ligand inhibition assay, purified scFv (second panel).
Regarding B2, the Fld improvement was 1 fold.

As to B3, the Fld improvement was 6.4 fold.

Consider B4, for which the Fld improvement came out at 3.2 fold.

B5: the Fld improvement stood at 5.8 fold.

Regarding B6, the Fld improvement amounted to 7 fold.

Turning to B7, the Fld improvement amounted to 5.2 fold.

With B8, the Fld improvement was 4.3 fold.

Take B9: the Fld improvement stood at 6.5 fold.

In the case of B10, the Fld improvement stood at 4.1 fold.

With B11, the Fld improvement came to 4.2 fold.

Consider B12, for which the Fld improvement turned out to be 4.2 fold.

In the case of B13, the Fld improvement came out at 5.2 fold.

For the next assay, the target named is T1, Human IL-13. The assay is described as follows: IC50 of the parent scFv divided by IC50 of the clone, biochemical receptor-ligand inhibition assay, purified scFv.
Regarding B2, the Fld improvement is 1 fold.

B14: the Fld improvement was determined as 4.28 fold.

On to B15, for which the Fld improvement worked out at 5.18 fold.

As to B16, the Fld improvement is 5.09 fold.

For the molecule B17, the Fld improvement is 7.5 fold.

Regarding B18, the Fld improvement came to 5.02 fold.

For B19, the Fld improvement is 3.93 fold.

As to B20, the Fld improvement amounted to 3.8 fold.

B21: the Fld improvement was found to be 6.12 fold.

Turning to B22, the Fld improvement is 3.16 fold.

Consider B23, for which the Fld improvement was 4.21 fold.

Turning to B24, the Fld improvement was 3.76 fold.

The next assay addresses T1, Human IL-13. The assay is described as follows: KinExA at 37° C., IgG fixed at 100 or 4 pM, human IL-13 titrated. Background: Kinetic exclusion samples the free partner from a solution-phase mixture.
Broadly, the Kd is the equilibrium constant for the complex coming apart. B18 showed a Kd of 0.0046 nM.

Take B24: binding was characterised by a dissociation constant (Kd) of 0.004 nM.

For a further assay, the target named is T1, Human IL-13. Put plainly: biochemical receptor-ligand inhibition assay, purified scFv titrated (second panel); the IL-13 receptor used is not named in Example 1.
Regarding B2, inhibition was half-maximal at 46 nM (IC50).

As for B3, the IC50 turned out to be 7.22 nM.

Take B4: the IC50 stood at 14.2 nM. Against the preceding molecule, the IC50 is about 2-fold higher.

Consider B5, for which inhibition was half-maximal at 7.86 nM (IC50).

In the case of B6, 6.53 nM corresponded to half-maximal inhibition (IC50). The IC50 values of the last two molecules are within 1.5-fold of each other.

Take B7: half-maximal inhibition (IC50) was put at 8.9 nM.

As for B8, the IC50 is 10.7 nM.

B9 had a half-inhibitory concentration (IC50) of 7.11 nM.

For the molecule B10, inhibition was half-maximal at 11.2 nM (IC50).

The molecule B11 displayed an IC50 of 10.8 nM.

B12 showed a concentration for half-maximal inhibition (IC50) of 11 nM. This IC50 and that of the molecule before are within 1.5-fold of each other.

As for B13, 8.88 nM corresponded to half-maximal inhibition (IC50).

Another assay has as its target T1, Human IL-13. The assay is described as follows: BIAcore. In general terms: Surface plasmon resonance follows binding to a sensor surface in real time, without labels.
B2 had an equilibrium dissociation constant (Kd) of 0.081 nM.

In the next assay the target is T1, Human IL-13. The assay is described as follows: biochemical receptor-ligand inhibition assay, purified scFv titrated; the IL-13 receptor used is not named in Example 1.
Regarding B2, inhibition was half-maximal at 40.6 nM (IC50).

B14 yielded an IC50 of 9.49 nM.

Regarding B15, the half-maximal inhibitory concentration (IC50) is 7.85 nM. The IC50 values of the last two molecules are within 1.5-fold of each other.

As for B16, the IC50 turned out to be 7.98 nM.

As to B17, the half-maximal inhibitory concentration (IC50) worked out at 5.42 nM. The IC50 values of the last two molecules are within 1.5-fold of each other.

Molecule B18 displayed a half-maximal inhibitory concentration (IC50) of 8.09 nM.

B19 came in with an IC50 of 10.3 nM.

The molecule B20 registered a half-inhibitory concentration (IC50) of 10.7 nM.

Take B21: the IC50 was 6.63 nM.

B22: the midpoint of inhibition, the IC50, lay at 12.8 nM.

Take B23: the 50% inhibitory concentration (IC50) stood at 9.65 nM.

With B24, the IC50 is 10.8 nM.
